Assay results taken from IntAct's records for PubMed 22396542.

B1: Ceramide transfer protein (Homo sapiens), Q9Y5P4-2 (parent)
chain: MSDNQSWNSSGSEEDPETESGPPVERCGVLSKWTNYIHGWQDRWVVLKNNALSYYKSEDETEYGCRGSICLSKAVITPHDFDECRFDISVNDSVWYLRAQDPDHRQQWIDAIEQHKTESGYGSESSLRRHGSMVSLVSGASGYSATSTSSFKKGHSLREKLAEMETFRDILCRQVDTLQKYFDACADAVSKDELQRDKVVEDDEDDFPTTRSDGDFLHSTNGNKEKLFPHVTPKGINGIDFKGEAITFKATTAGILATLSHCIELMVKREDSWQKRLDKETEKKRRTEEAYKNAMTELKKKSHFGGPDYEEGPNSLINEEEFFDAVEAALDRQDKIEEQSQSEKVRLHWPTSLPSGDAFSSVGTHRFVQKVEEMVQNHMTYSLQDVGGDANWQLVVEEGEMKVYRREVEENGIVLDPLKATHAVKGVTGHEVCNYFWNVDVRNDWETTIENFHVVETLADNAIIIYQTHKRVWPASQRDVLYLSVIRKIPALTENDPETWIVCNFSVDHDSAPLNNRCVRAKINVAMICQTLVSPPEGNQEISRDNILCKITYVANVNPGGWAPASVLRAVAKREYPKFLKRFTSYVQEKTAGKPILF

Variants of: B1
Settings: with samp_human APCS

Row | effect of a mutation on the interaction | Variant
1 | disrupting interaction strength | MSDNQSWNSSGSEEDPETESGPPVERCGVLSKWTNYIHGWQDRWVVLKNNALSYYKSEDETEYGCRGSICLSKAVITPHDFDECRFDISVNDSVWYLRAQDPDHRQQWIDAIEQHKTESGYGSESSLRRHGSMVSLVSGASGYSATSTSSFKKGHSLREKLAEMETFRDILCRQVDTLQKYFDACADAVSKDELQRDKVVEDDEDDFPTTRSDGDFLHSTNGNKEKLFPHVTPKGINGIDFKGEAITFKATTAGILATLSHCIELMVKREDSWQKRLDKETEKKRRTEEAYKNAMTELKKKSHFGGPDYEEGPNSLINEEEFFDAVEAALDRQDKIEEQSQSEKVRLHWPTSLPSGDAFSSVGTHRFVQKVEEMVQNHMTYSLQDVGGDANWQLVVEEGEMKVYRREVEENGIVLDPLKATHAVKGVTGHEVCNYFWNVDVRNDWETTIENFHVVETLADNAIIIYQTHKRVWGQSQRDVLYLSVIRKIPALTENDPETWIVCNFSVDHDSAPLNNRCVRAKINVAMICQTLVSPPEGNQEISRDNILCKITYVANVNPGGWAPASVLRAVAKREYPKFLKRFTSYVQEKTAGKPILF [P474G;A475Q]
2 | with no effect | MSDNQSWNSSGSEEDPETESGPPVERCGVLSKWTNYIHGWQDRWVVLKNNALSYYKSEDETEYGCRGSICLSKAVITPHDFDECRFDISVNDSVWYLRAQDPDHRQQWIDAIEQHKTESGYGSESSLRRHGSMVSLVSGASGYSATSTSSFKKGHSLREKLAEMETFRDILCRQVDTLQKYFDACADAVSKDELQRDKVVEDDEDDFPTTRSDGDFLHSTNGNKEKLFPHVTPKGINGIDFKGEAITFKATTAGILATLSHCIELMVKREDSWQKRLDKETEKKRRTEEAYKNAMTELKKKSHFGGPDYEEGPNSLINEEEFFDAVEAALDRQDKIEEQSQSEKVRLHWPTSLPSGDAFSSVGTHRFVQKVEEMVQNHMTYSLQDVGGDANWQLVVEEGEMKVYRREVEENGIVLDPLKATHAVKGVTGHEVCNYFWNVDVRNDWETTIENFHVVETLADNAIIIYQTHKRAAPASQRDVLYLSVIRKIPALTENDPETWIVCNFSVDHDSAPLNNRCVRAKINVAMICQTLVSPPEGNQEISRDNILCKITYVANVNPGGWAPASVLRAVAKREYPKFLKRFTSYVQEKTAGKPILF [V472A;W473A]

Further lines, the variant ahead of its results:

Row | Variant | effect of a mutation on the interaction
3 | MSDNQSWNSSGSEEDPETESGPPVERCGVLSKWTNYIHGWQDRWVVLKNNALSYYKSEDETEYGCRGSICLSKAVITPHDFDECRFDISVNDSVWYLRAQDPDHRQQWIDAIEQHKTESGYGSESSLRRHGSMVSLVSGASGYSATSTSSFKKGHSLREKLAEMETFRDILCRQVDTLQKYFDACADAVSKDELQRDKVVEDDEDDFPTTRSDGDFLHSTNGNKEKLFPHVTPKGINGIDFKGEAITFKATTAGILATLSHCIELMVKREDSWQKRLDKETEKKRRTEEAYKNAMTELKKKSHFGGPDYEEGPNSLINEEEFFDAVEAALDRQDKIEEQSQSEKVRLHWPTSLPSGDAFSSVGTHRFVQKVEEMVQNHMTYSLQDVGGDANWQLVVEEGEMKVYRREVEENGAVLDPLKATHAVKGVTGHEVCNYFWNVDVRNDWETTIENFHVVETLADNAIIIYQTHKRVWPASQRDVLYLSVIRKIPALTENDPETWIVCNFSVDHDSAPLNNRCVRAKINVAMICQTLVSPPEGNQEISRDNILCKITYVANVNPGGAAPASVLRAVAKREYPKFLKRFTSYVQEKTAGKPILF [I413A;W562A] | decreasing interaction strength
4 | MSDNQSWNSSGSEEDPETESGPPVERCGVLSKWTNYIHGWQDRWVVLKNNALSYYKSEDETEYGCRGSICLSKAVITPHDFDECRFDISVNDSVWYLRAQDPDHRQQWIDAIEQHKTESGYGSESSLRRHGSMVSLVSGASGYSATSTSSFKKGHSLREKLAEMETFRDILCRQVDTLQKYFDACADAVSKDELQRDKVVEDDEDDFPTTRSDGDFLHSTNGNKEKLFPHVTPKGINGIDFKGEAITFKATTAGILATLSHCIELMVKREDSWQKRLDKETEKKRRTEEAYKNAMTELKKKSHFGGPDYEEGPNSLINEEEFFDAVEAALDRQDKIEEQSQSEKVRLHWPTSLPSGDAFSSVGTHRFVQKVEEMVQNHMTYSLQDVGGDANWQLVVEEGEMKVYRREVEENGIVLDPLKATHAVKGVTGHEVCNAAWNVDVRNDWETTIENFHVVETLADNAIIIYQTHKRVWPASQRDVLYLSVIRKIPALTENDPETWIVCNFSVDHDSAPLNNRCVRAKINVAMICQTLVSPPEGNQEISRDNILCKITYVANVNPGGWAPASVLRAVAKREYPKFLKRFTSYVQEKTAGKPILF [Y435A;F436A] | decreasing interaction strength
5 | MSDNQSWNSSGSEEDPETESGPPVERCGVLSKWTNYIHGWQDRWVVLKNNALSYYKSEDETEYGCRGSICLSKAVITPHDFDECRFDISVNDSVWYLRAQDPDHRQQWIDAIEQHKTESGYGSESSLRRHGSMVSLVSGASGYSATSTSSFKKGHSLREKLAEMETFRDILCRQVDTLQKYFDACADAVSKDELQRDKVVEDDEDDFPTTRSDGDFLHSTNGNKEKLFPHVTPKGINGIDFKGEAITFKATTAGILATLSHCIELMVKREDSWQKRLDKETEKKRRTEEAYKNAMTELKKKSHFGGPDYEEGPNSLINEEEFFDAVEAALDRQDKIEEQSQSEKVRLHWPTSLPSGDAFSSVGTHRFVQKVEEMVQNHMTYSLQDVGGDANWQLVVEEGEMKVYRREVEENGIVLDPLKATHAVKGVTGHEVCAAFWNVDVRNDWETTIENFHVVETLADNAIIIYQTHKRVWPASQRDVLYLSVIRKIPALTENDPETWIVCNFSVDHDSAPLNNRCVRAKINVAMICQTLVSPPEGNQEISRDNILCKITYVANVNPGGWAPASVLRAVAKREYPKFLKRFTSYVQEKTAGKPILF [N434A;Y435A] | with no effect

Variants of: B1
Settings: with samp_human APCS
Remark: another data set of the same source

Row | effect of a mutation on the interaction | Variant
6 | decreasing interaction strength | MSDNQSWNSSGSEEDPETESGPPVERCGVLSKWTNYIHGWQDRWVVLKNNALSYYKSEDETEYGCRGSICLSKAVITPHDFDECRFDISVNDSVWYLRAQDPDHRQQWIDAIEQHKTESGYGSESSLRRHGSMVSLVSGASGYSATSTSSFKKGHSLREKLAEMETFRDILCRQVDTLQKYFDACADAVSKDELQRDKVVEDDEDDFPTTRSDGDFLHSTNGNKEKLFPHVTPKGINGIDFKGEAITFKATTAGILATLSHCIELMVKREDSWQKRLDKETEKKRRTEEAYKNAMTELKKKSHFGGPDYEEGPNSLINEEEFFDAVEAALDRQDKIEEQSQSEKVRLHWPTSLPSGDAFSSVGTHRFVQKVEEMVQNHMTYSLQDVGGDANWQLVVEEGEMKVYRREVEENGIVLDPLKATHAVKGVTGHEVCAAFWNVDVRNDWETTIENFHVVETLADNAIIIYQTHKRVWPASQRDVLYLSVIRKIPALTENDPETWIVCNFSVDHDSAPLNNRCVRAKINVAMICQTLVSPPEGNQEISRDNILCKITYVANVNPGGWAPASVLRAVAKREYPKFLKRFTSYVQEKTAGKPILF [N434A;Y435A]
